Source: the DeepSol protein solubility set

Assay: soluble on expression in E. coli; label from the status in PepcDB or PDB records

Sequence | soluble on expression in E. coli
MGSDKIHHHHHHMRKDKNGTQEPKAKYRVRNWAAYNAGLINRGNITMWIGDDALANMPDTEPTRGRSRLYSDALIQALLGLKTVFHLPLRALQGFAQSLRDLAFAELPVPNYTTVCRRAQALQVKLPVIHSDEPLHLVVDSTGAKVCGEGEWKVRQHGYSKRRTWRKVHLALDANTGQLRAALMTHQDVADGEVLPELLEQISADESIDTIGGDGAYDTQACYASITARGALPSIPPREGAVHWPTTTPGASRRNAALDAIAQGSRREWKQQSGYHRRSLAENAMYRLKTLTGPCLWARRTDTQATEVAVRVGVLNRMAELSRPQSVRIARDHEQRHHFVLTPDLCNNVHSSAERRQGRVSCAMHATI | not soluble
MGSDKIHHHHHHMKKIFKSIANSANCLADVLFPPHCLVCDSGLVLGETDVCSTCLSTLPTVNDDYSPDSLYLRLSIELRPSFVWAYLLFDSKNKTQKILHAIKYGDAPDIAVRLAMIWTDRIRESLVEADVDLIMPIPLHKSKLRKRGYNQATKIAEGIQKIVPIPIEESVLIRKRNLFIQAKSKRAKRFENVKQVYAIQHIEKVAGKHILLVDDVLTTGATLEACGLLLKNAGAAKVSVALLAMVAD | not soluble
MSLAYGNINQPFSLESLPDELIPENLYQIETDSSRVFQRHQCRRLAHLLLFQLLKIAGKSTALLSQIHRTESGRPYFLDERIDFNISHSGDWVAVILDIRNEEKSAVGIDIEFPKIRNFTALMEHIAPKEEIDWFHHQQDSLNAFYRCWCLREAVLKSQGFGIVKLSNVRHFPEQQKIFSDYCPQGQLWFTDELPIYLAAFVNHQEKLPHFYEWNRESLQIKELEKYVLYEVNEGHHHHHH | not soluble
MAHHHHHHMRKKKTKDVPTVFIECALEGEGEKLCVRWLFGMGVGGKPYDADEYDATIVWVPSDYAFHGDKFTSPLRPIPTKNPVAVVRIPVYLCRKKALRSCGGNPMLLSVYGSYGECCDVVFENERLSLLDRGFVWGFAAVCGGSELGAAWHKAGCGLQRATSVNDFVSVSFYVQETGWCAAGQIVTHGSSAGVFVATAAMCVAPSLPLAVIALVPCVDCLTTLMDDSLPLTVSNWEEFGNPRDDADAYRLLRAMLPMDNIPSVGVALPHMLLLTAWHDTRVGFWESLAFTARLRAREMEEGAATR | soluble
MSLKIAVLDDYQDAVRKLDCFSLLQDHEVKVFNNTVKGVGQLAARVADVEAIVLIRERTRVTRQLLDRLPKLKIISQTGRVSRDAGGHIDLEACTDKGVVVLEGKGSPVAPAELTWALVMAAQRRIPQYVASLKHGAWQQSGLKSTTMPPNFGIGRVLKGQTLGIFGYGKIGQLVAGYGRAFGMNVLVWGRENSKERARADGFAVAESKDALFEQSDVLSVHLRLNDETRGIVTVADLTRMKPTALFVNTSRAELVEENGMVTALNRGRPGMAAIDVFETEPILQGHTLLRMENCICTPHIGYVERESYEMYFGIAFQNILDILQGNVDSVANPTALAPALIRAEGHHHHHH | soluble
MNHYVYILECKDGSWYTGYTTDVDRRIKKHASGKGAKYTRGRGPFRLVATWAFPSKEEAMRWEYEVKHLSRRKKEQLVSLKGGPYENTTKLSTTMAGDPLEHHHHHH | soluble
MADSPNRLNRAKIDSTTMKDPRVLNNLKLRELLLPKFTSLWEIQTEVTVDNRTILLTWMHLLCESFELDKSVFPLSVSILDRYLCKKQGTKKTLQKIGAACVLIGSKIRTVKPMTVSKLTYLSCDCFTNLELINQEKDILEALKWDTEAVLATDFLIPLCNALKIPEDLWPQLYEAASTTICKALIQPNIALLSPGLICAGGLLTTIETDNTNCRPWTCYLEDLSSILNFSTNTVRTVKDQVSEAFSLYDLEIL | soluble
MSLESTNRLRYLIAGTGGVGGSIAGFLSLAGKDVTCIARGAHLQAIQQDGLKLKSDLKGEHALRINACTAEEYNGKADVIFVCVKGYSVDSITELIKRAAHDRTIVIPILNVYGTGPRIQRLVPGVTVLDGCIYIVGFVSGPGEITQMGTIFRLVYGAHRGILVPAGLMEAVQRDLQESGIKVEISSDINRDTFIKWSFISAMAVTGAYFDVPMGEVQKPGKVRDTFIGLSTESAALGKKLGIEFKEDIVTYNLKVIDKLAPESTASMQKDIARGHESEVQGLLFDMITAAEEQGIDVPTYREVAKKFIKQEGHHHHHH | soluble
MGSDKIHHHHHHMSDWTDRLPEAARAYIADRRVDEVECILSDIAGVARGKAMPAFKFGKQTSFFLPNSIFLQTITGEWADNPSGAFTEPDMILIPDYSTATAAPWTADITLQVIHDAVDQQGRPVPVSPRNVLRRVVELYNAEGWTPIVAPEMEFFLVARNIDPNMPVMPPMGRTGRRAAAKQAYSMSAVDEYGKVIDDIYDFAEAQGFEIDGILQEGGAGQVEINLAHGDPVALADQIFFFKRLIREAALRHDCFATFMAKPIEGEPGSAMHIHHSVVDSASKLNIFSDAKGGETEAFLHFIAGMQTHLPAAVALLAPYVNSYRRYVPDFAAPINLEWGRDNRTTGLRVPISGPEARRLENRLAGMDCNPYLGLAASLACGYLGLKERKMPQPECTGDAYMSETDLPYNLGDALDLLEEDAALRDVLGPEFCGVYDSVKRNEYKEFLQVISPWEREHLLLNV | not soluble
MAHHHHHHMPYQHIKVPEGGDKITVNKDFSLNVSDQPIIPYIEGDGTGFDITPVMIKVVDAAVEKAYGGKKKIHWMEIYAGEKATKVYGPDVWLPEETLQVLKEYVVSIKGPLTTPVGGGIRSLNVALRQELDLYVCLRPIQYFKGVPSPVREPEKTNMVIFRENSEDIYAGIEWAAESEQAKKVIKFLQEEMGVKKIRFPQTSGIGIKPVSKEGTERLVRKAIQYAIDNDRKSVTLVHKGNIMKFTEGAFRDAGYALAQKEFGAELIDGGPWMKFKNPKTGNEIVVKDSIADAFLQQILLRPAEYDVIATLNLNGDYISDALAAQVGGIGIAPGANLSDSVAMFEATHGTAPKYAGKDYVNPGSEILSAEMMLRHLGWTEAADVIISAMEKSIKQKRVTYDFARLMEGATQVSCSGFGQVLIENME | soluble
MSLYKLIALDMDGTLLNDDKIISKRNKEAIKKAKNLGYKVVLSTGRPLKGVERYLKELDLVNDDDYAIAFNGGLVQNTKTGEVLGKELMKFEDLDRLYKLSQKFNVNIHMLSINECITPKKNPYTEVEVNINQIPLIEKNFNELPHDTVIVKIMMIDSKEKLDKVEKLLPKEIYDDYSVARSSDIFLEFSPKGVHKGVGLKILSEHLNLKKEELIAVGDAGNDIAMIEYAGLGVAMGNAFPYVKESADYVTDNNETHGVAKVIEKFMLNEGHHHHHH | soluble
MGSDKIHHHHHHMPLYQPLTPRLFMRQWRASDLPCFARMNADRRVMRFFPASLTRRQSDAMAERCSMLIDSQGWGFWAVEERSSGLFAGMVGLHRPSGDLPFAPCVEVGWRLDPDHWGKGYATEAAAAALDIAFNTLGLHEVVAFTAVLNTPSQAVMRRLGMRHAMDFEHPAVPADSPLRAHCLYRTDKEEHQRRHGL | not soluble
MAHHHHHHMIRINENSKMSSNLSNENEVTYEKNNNIKNKLEEKYKNFLKLKNMNSHMGASQNMNVNNNYTMNELEEFEKINNNYNNNNNNINNNINNYYDYMNIKVSQSVQHNKRLQDFYNNKNSFQHYIKKLKTCRFDADDIRNLLEKRLAYERDNTLIKNIQEEENKKGIGINGNFGSESNSSSSNYDNNYLLYRKINRLNKTNTNKSKNRSRKRKRINSKIDKKYIIKCRACKFINPNGFKIEDYYTCQNCGYNDFSVIRSTSPNNAD | not soluble
MLAAKNILNRSSLSSSFRIATRLQSTKVQGSVIGIDLGTTNSAVAIMEGKVPKIIENAEGSRTTPSVVAFTKEGERLVGIPAKRQAVVNPENTLFATKRLIGRRFEDAEVQRDIKQVPYKIVKHSNGDAWVEARGQTYSPAQIGGFVLNKMKETAEAYLGKPVKNAVVTVPAYFNDSQRQATKDAGQIVGLNVLRVVNEPTAAALAYGLEKSDSKVVAVFDLGGGTFDISILDIDNGVFEVKSTNGDTHLGGEDFDIYLLREIVSRFKTETGIDLENDRMAIQRIREAAEKAKIELSSTVSTEINLPFITADASGPKHINMKFSRAQFETLTAPLVKRTVDPVKKALKDAGLSTSDISEVLLVGGMSRMPKVVETVKSLFGKDPSKAVNPDEAVAIGAAVQGAVLSGEVTDVLLLDVTPLSLGIETLGGVFTRLIPRNTTIPTKKSQIFSTAAAGQTSVEIRVFQGERELVRDNKLIGNFTLAGIPPAPKGVPQIEVTFDIDADGIINVSARDKATNKDSSITVAGSSGLSENEIEQMVNDAEKFKSQDEARKQAIETANKADQLANDTENSLKEFEGKVDKAEAQKVRDQITSLKELVARVQGGEEVNAEELKTKTEELQTSSMKLFEQLYKNDSNNNNNNNGNNAESGETKQ | not soluble
